Assay results published in patent US12421321B2, “Methods for treating fibrodysplasia ossificans progressiva” (Ashibio, Inc., priority 2023, dated 2025).
Where two headings read alike, the source gives them in different places.

Assays:
[1] = in vivo; cited from earlier work
HT1080 cells = conditions: cited from earlier work
pro-MMP-9 [2] = target: T1, pro-MMP-9 (Homo sapiens, UniProt P14780, Q279R/R574P); conditions: cited from earlier work
T1 construct: Human MMP-9 protein (without)

MDA-MB-435 = MDA-MB-435 mouse models; cited from earlier work
[3] = tested on: fibrodysplasia ossificans progressiva; conditions: in vivo; cited from earlier work
pro-MMP-9 [4] = target: T1, pro-MMP-9; conditions: cited from earlier work; remark: listed apart in the source
[5] = Pooled safety analysis of double-blind placebo-controlled trials, subcutaneous andecaliximab monotherapy, non-oncologic conditions; format: in vivo, human; conditions: for Participants with TEAE assessed as related to study drug: double-blind period
Protocol: A pooled analysis was conducted of all safety data from prior randomized, double-blind, placebo-controlled clinical trials where andecaliximab was administered subcutaneously as a monotherapy in non-oncologic conditions.
The pooled safety analysis consisted of 347 patients enrolled in double-blind (DB) placebo-controlled trials [age 18-78 yrs, median duration of treatment: DB=8 wk; DB+ open label extension (OLE)=17 wk; max 75 wk]. During the DB treatment period, treatment-emergent adverse event (TEAE) assessed as related to study drug occurred in 19 (17.8%) receiving 150 mg Q2W, 23 (20.2%) receiving 150 mg QW, 13 (22.4%) receiving 300 mg QW, none of those receiving 600 mg andecaliximab QW, and 20 participants (22.0%) received a placebo. Treatment-related TEAEs more common with andecaliximab compared with placebo (difference of >1 percentage point) were injection site erythema (2.1% versus 1.1%), headache (1.4% versus 0%), anemia (1.1% versus 0%), and injection site pain (1.1% versus 0%).

[6] = human, in vivo; cited from earlier work
pro-MMP-9 [7] = target: T1, pro-MMP-9; conditions: read-out: IC50, activation of MMP-9 from human pro-MMP-9; cited from earlier work
MMP-9 [8] = target: T2, MMP-9 (Homo sapiens, UniProt P14780); conditions: cited from earlier work
Target sequence in this assay (P14780 107-707 limits assumed): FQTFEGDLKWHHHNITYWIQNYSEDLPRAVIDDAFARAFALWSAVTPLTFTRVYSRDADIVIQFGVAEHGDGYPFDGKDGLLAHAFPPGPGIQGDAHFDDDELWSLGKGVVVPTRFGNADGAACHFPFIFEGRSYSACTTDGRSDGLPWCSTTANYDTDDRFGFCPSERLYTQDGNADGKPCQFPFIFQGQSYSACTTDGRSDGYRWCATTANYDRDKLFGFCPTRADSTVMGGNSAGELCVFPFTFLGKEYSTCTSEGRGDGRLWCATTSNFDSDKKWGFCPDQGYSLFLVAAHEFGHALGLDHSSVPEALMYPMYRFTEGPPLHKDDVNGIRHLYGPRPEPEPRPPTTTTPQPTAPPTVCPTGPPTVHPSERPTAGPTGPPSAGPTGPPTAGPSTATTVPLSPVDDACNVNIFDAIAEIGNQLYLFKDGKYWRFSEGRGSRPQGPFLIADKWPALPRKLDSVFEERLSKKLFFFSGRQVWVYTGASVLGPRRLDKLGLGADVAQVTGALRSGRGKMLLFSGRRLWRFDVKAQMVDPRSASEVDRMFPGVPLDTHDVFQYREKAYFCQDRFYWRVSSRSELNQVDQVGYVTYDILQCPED

[9] = tested on: mouse model of multiple sclerosis; conditions: cited from earlier work
MMP-9 [10] = target: T2, MMP-9; conditions: read-out: Ki against MMP-9, cited from earlier work
Target sequence in this assay (P14780 94-707): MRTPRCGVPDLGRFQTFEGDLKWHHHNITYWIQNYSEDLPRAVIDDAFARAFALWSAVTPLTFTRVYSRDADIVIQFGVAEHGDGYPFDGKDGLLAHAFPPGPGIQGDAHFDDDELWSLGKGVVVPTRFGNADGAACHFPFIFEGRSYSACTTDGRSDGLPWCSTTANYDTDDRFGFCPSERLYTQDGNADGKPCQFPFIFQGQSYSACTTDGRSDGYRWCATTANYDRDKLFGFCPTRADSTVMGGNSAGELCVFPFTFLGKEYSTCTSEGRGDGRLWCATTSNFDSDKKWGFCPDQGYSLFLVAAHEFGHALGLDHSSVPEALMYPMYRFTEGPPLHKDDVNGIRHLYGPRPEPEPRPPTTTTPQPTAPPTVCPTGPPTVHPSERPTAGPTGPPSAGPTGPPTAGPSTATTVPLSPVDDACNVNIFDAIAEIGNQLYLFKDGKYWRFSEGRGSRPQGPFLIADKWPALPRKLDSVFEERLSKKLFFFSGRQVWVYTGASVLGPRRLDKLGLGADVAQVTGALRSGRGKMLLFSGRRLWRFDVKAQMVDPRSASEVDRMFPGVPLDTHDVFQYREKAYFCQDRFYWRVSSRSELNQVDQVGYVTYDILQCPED

heterotopic ossification = test: Inducible FOP mouse model (Acvr1 R206H, tamoxifen plus cardiotoxin), HO volume by micro-CT; format: in vivo, mice; conditions: 30 mg/kg loading, then 15 mg/kg IP; micro CT 14-24 days post-injury
Protocol: FIG. 1 is a plot showing heterotopic ossification (HO) in an inducible mouse model of FOP having the R206H mutation (Acvr1[R206H]FIEx/+, Gt(ROSA26)SorCreERT2/+) treated with a control vehicle or AB0046 antibody (murine surrogate of andecaliximab that recapitulates MMP-9 inhibitory activity). The induction of disease occurred via tamoxifen (75 mg/kg×7 days, IP) and cardiotoxin injection on day 0 (10 μM, 100 μL) in the right gastrocnemius muscle. Dosing occurred at 30 mg/kg three days prior to injury (loading dose to address initial target-mediated drug disposition), then 15 mg/kg on days 0 and 3, or 15 mg/kg continuing twice per week after day […]. Ex vivo quantification of HO at the injury site was assessed using high-resolution micro CT and analyzed using 3D morphometry.
As described in Hatsell et al (Science Translational Medicine 2015), a knock-in transgenic model (Acvr1[R206H]FIEx/+; Gt(ROSA26)SorCreERT2/+) is used for these studies. […]
Faxitron images (medio-lateral view) of the collected entire right and left hindlimbs from all animals were performed (ex vivo) to document the presence of ectopic bone. Images were assessed qualitatively.
The effect of the anti-MMP-9 antibody, AB0046, on bone formation in the mouse model was evaluated ex vivo at the end of the in-life period. […]

[11] = tested on: colorectal carcinoma xenograft; conditions: surgical orthotopic xenograft model of colorectal carcinoma; cited from earlier work
[12] = pooled andecaliximab (placebo 0%)

T1 sequence (P14780 20-707 Q279R/R574P): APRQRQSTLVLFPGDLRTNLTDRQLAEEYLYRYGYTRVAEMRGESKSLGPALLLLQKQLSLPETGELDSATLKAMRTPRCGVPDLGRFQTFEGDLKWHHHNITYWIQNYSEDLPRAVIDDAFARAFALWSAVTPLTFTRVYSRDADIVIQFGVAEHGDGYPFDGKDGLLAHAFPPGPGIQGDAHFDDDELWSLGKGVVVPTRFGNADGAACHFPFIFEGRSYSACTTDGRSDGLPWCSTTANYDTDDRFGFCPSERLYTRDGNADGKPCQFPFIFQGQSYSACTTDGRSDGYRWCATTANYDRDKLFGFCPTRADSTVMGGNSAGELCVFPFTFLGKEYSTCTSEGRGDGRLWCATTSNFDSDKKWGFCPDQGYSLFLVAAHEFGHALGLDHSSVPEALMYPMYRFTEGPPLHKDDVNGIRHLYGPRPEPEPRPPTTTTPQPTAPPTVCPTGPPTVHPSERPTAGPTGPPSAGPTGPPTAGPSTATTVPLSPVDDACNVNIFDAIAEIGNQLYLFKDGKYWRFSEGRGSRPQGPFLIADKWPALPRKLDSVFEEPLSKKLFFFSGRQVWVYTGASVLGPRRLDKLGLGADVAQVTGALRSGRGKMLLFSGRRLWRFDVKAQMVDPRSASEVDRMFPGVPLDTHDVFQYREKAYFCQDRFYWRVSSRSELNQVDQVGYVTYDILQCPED

COc1ccccc1Nc1nc(-c2sc(NC(C)=O)nc2C)cs1 [JNJ0966, N-(2-((2-methoxyphenyl)amino)-4′-methyl-[4,5′-bithiazol]-2′yl) acetamide]
Blood-brain barrier penetration [1]: penetrates the blood-brain barrier | Migration of HT1080 cells (HT1080 cells): inhibits the migration of HT1080 cells | Activation of pro-MMP-9 (pro-MMP-9 [2]): prevents the activation of pro-MMP-9

CCCc1cc(=O)nc(SCC(=O)Nc2ccc(OC(F)F)cc2)[nH]1 [N-[4-(difluoromethoxy)phenyl]-2-[(4-oxo-6-propyl-1H-pyrimidin-2-yl)sulfanyl]-acetamide]
Tumor growth and metastasis (MDA-MB-435): reduced tumor growth and metastasis

CC1(C)CCC(C)(C)c2cc(Cn3cccn3)c(/C=C/c3ccc(C(=O)O)cc3)cc21 [Palovarotene, palovarotene]
Effect in mouse model of fibrodysplasia ossificans progressiva [3]: shown promise

andecaliximab: anti-MMP-9 recombinant chimeric, humanized antibody; heavy chain SEQ ID NO: 35, light chain SEQ ID NO: 36
Kd (pro-MMP-9 [4]): 0.008 to 0.043 nM | Participants with TEAE assessed as related to study drug ([5]; 150 mg Q2W): 17.8% | Participants with TEAE assessed as related to study drug ([5]; 150 mg QW): 20.2% | Participants with TEAE assessed as related to study drug ([5]; 300 mg QW): 22.4% | Participants with TEAE assessed as related to study drug ([5]; 600 mg QW): none | Treatment-related TEAE: anemia [5, 12]: 1.1% | Treatment-related TEAE: headache [5, 12]: 1.4% | Treatment-related TEAE: injection site pain [5, 12]: 1.1% | Treatment-related TEAE: injection site erythema ([5]; pooled andecaliximab (placebo 1.1%)): 2.1% | Safety and tolerability in clinical trials [6]: safe and well-tolerated | IC50 (pro-MMP-9 [7]): 0.0082 nM | Kd (MMP-9 [8]): 2 to 6.6 nM

α1(V)GlyΨ{PO2H—CH2} Val [mep14, 32,Flp15, 33] THPI
Clinical severity and weight loss [9]: effectively reduced clinical severity and weight loss | Ki (MMP-9 [10]; 25° Celsius): 90.6 nM | Ki (MMP-9 [10]; 37° Celsius): 0.98 nM

B1: AB0046: murine surrogate of andecaliximab that recapitulates MMP-9 inhibitory activity; SEQ ID NO: 33 and 32 (antibody)
heavy: MGWSSIILFLVATATGVHSQVQLQQPGSVLVRPGASVKLSCTASGYTFTSYWMNWVKQRPGQGLEWIGEIYPISGRTNYNEKFKVKATLTVDTSSSTAYMDLNSLTSEDSAVYYCARSRANWDDYWGQGTTLTVSSAKTTPPSVYPLAPGSAAQTNSMVTLGCLVKGYFPEPVTVTWNSGSLSSGVHTFPAVLQSDLYTLSSSVTVPSSTWPSETVTCNVAHPASSTKVDKKIVPRDCGCKPCICTVPEVSSVFIFPPKPKDVLTITLTPKVTCVVVDISKDDPEVQFSWFVDDVEVHTAQTQPREEQFNSTFRSVSELPIMHQDWLNGKEFKCRVNSAAFPAPIEKTISKTKGRPKAPQVYTIPPPKEQMAKDKVSLTCMITDFFPEDITVEWQWNGQPAENYKNTQPIMDTDGSYFVYSKLNVQKSNWEAGNTFTCSVLHEGLHNHHTEKSLSHSPGK
light: MSSAQFLGLLLLCFQGTRCDIQMTQTTSSLSASLGDRVTISCSASQGISNYLNWYQQKPDGTFKLLIYYTSILHSGVPSRFSGSGSGTDYSLTISNLEPEDIATYYCQQYGWLPRTFGGGTKLEIKRADAAPTVSIFPPSSEQLTSGGASVVCFLNNFYPKDINVKWKIDGSERQNGVLNSWTDQDSKDSTYSMSSTLTLTKDEYERHNSYTCEATHKTSTSPIVKSFNRNEC
Heterotopic ossification (HO) at the injury site versus IgG control (heterotopic ossification): reduced HO in mice | Tumor growth and metastasis [11]: reduced tumor growth and metastasis
